Laboratory results as given in patent US6794168B1, “Process for oxidising aromatic compounds” (Isis Innovation Limited, priority 1999, dated 2004).

Legend:
[1] = system: P450cam; test: Oxidation of further halo aromatic substrates by P450cam enzymes; type: biochemical, Pseudomonas putida; conditions: substrate of P450cam enzymes
Experimental: (§1) 50 mM Tris-HCl buffer pH 7.4 is added to make up the volume.
(§2) Temperature controlled at 30° C., optional.
(§3) The NADH turnover rate could be determined by monitoring the absorbance at 340 nm with time.
(§4) All mutants have C334A. Coupling efficiency is the percentage of NADH consumed which was utilised for product formation, i.e. a percentage of the theoretical maximum efficiency. The product formation rates are given in (nmol product) (nmol P450cam)^−1(min)^−1. The relative amount of product formed in each case is shown. 1,3- and 1,4-dichlorobenzene, 1,2,3- and 1,3,5-trichlorobenzene, 1,2,4,5- and 1,2,3,5-tetrachlorobenzene, and […] and 2,2′,4,5,5′-pentachlorobiphenyl were also found to be oxidised.

[2] = Oxidation of halo aromatic compounds by P450cam mutants in vitro, trichlorophenol products; type: biochemical; conditions: for Product formation rate: (nmol product)(nmol P450cam)^−1(min)^−1; for Product formation rate / Coupling Efficiency (%): trichlorophenol products; for Coupling Efficiency (%): percentage of NADH consumed utilised for product formation; for 2,3,6-Trichlorophenol (relative amount of product formed) / 3,4,6-Trichlorophenol (relative amount of product formed): substrate not named, all mutants have C334A
Experimental: as §1, §2, §3, §4

[3] = Oxidation of halo aromatic compounds by P450cam mutants in vitro, dichlorophenol products; type: biochemical; conditions: for Product formation rate: (nmol product)(nmol P450cam)^−1(min)^−1; for Product formation rate / Coupling Efficiency (%): dichlorophenol products; for Coupling Efficiency (%): percentage of NADH consumed utilised for product formation; for 2,3-Dichlorophenol (relative amount of product formed) / 3,4-Dichlorophenol (relative amount of product formed): substrate not named, all mutants have C334A
Experimental: as §1, §2, §3, §4

Molecule	found to be oxidised [1]	Product formation rate [2] [min⁻¹]	Product formation rate [3] [min⁻¹]	further results
Clc1cc(Cl)c(Cl)c(Cl)c1 [1,2,3,5-tetrachlorobenzene]	oxidised	–	–	–
Clc1cccc(Cl)c1Cl [1,2,3-trichlorobenzene]	oxidised	–	–	–
Clc1cc(Cl)c(Cl)cc1Cl [1,2,4,5-tetrachlorobenzene]	oxidised	–	–	–
Clc1cc(Cl)cc(Cl)c1 [1,3,5-trichlorobenzene]	oxidised	–	–	–
Clc1cccc(Cl)c1 [1,3-dichlorobenzene]	oxidised	–	–	–
Clc1ccc(Cl)cc1 [1,4-dichlorobenzene]	oxidised	–	–	–
Clc1ccc(Cl)c(-c2cc(Cl)c(Cl)cc2Cl)c1 [2,2′,4,5,5′-pentachlorobiphenyl]	oxidised	–	–	–
Clc1c(Cl)c(Cl)c(-c2ccccc2)c(Cl)c1Cl [2,3,4,5,6-pentachlorobiphenyl]	oxidised	–	–	–
F87A-Y96F: P450cam mutant (with C334A) (protein, UniProt P00183 2-415, looked up, variant F87A Y96F C334A) Camphor 5-monooxygenase: TTETIQSNANLAPLPPHVPEHLVFDFDMYNPSNLSAGVQEAWAVLQESNVPDLVWTRCNGGHWIATRGQLIREAYEDYRHFSSECPAIPREAGEAFDFIPTSMDPPEQRQFRALANQVVGMPVVDKLENRIQELACSLIESLRPQGQCNFTEDYAEPFPIRIFMLLAGLPEEDIPHLKYLTDQMTRPDGSMTFAEAKEALYDYLIPIIEQRRQKPGTDAISIVANGQVNGRPITSDEAKRMCGLLLVGGLDTVVNFLSFSMEFLAKSPEHRQELIERPERIPAACEELLRRFSLVADGRILTSDYEFHGVQLKKGDQILLPQMLSGLDERENAAPMHVDFSRQKVSHTTFGHGSHLCLGQHLARREIIVTLKEWLTRIPDFSIAPGAQIQHKSGIVSGVQALPLVWDPATTKAV	–	3	–	–
Y96A-V247L: P450cam mutant (with C334A) (protein, UniProt P00183 2-415, looked up, variant Y96A V247L C334A) Camphor 5-monooxygenase: TTETIQSNANLAPLPPHVPEHLVFDFDMYNPSNLSAGVQEAWAVLQESNVPDLVWTRCNGGHWIATRGQLIREAYEDYRHFSSECPFIPREAGEAADFIPTSMDPPEQRQFRALANQVVGMPVVDKLENRIQELACSLIESLRPQGQCNFTEDYAEPFPIRIFMLLAGLPEEDIPHLKYLTDQMTRPDGSMTFAEAKEALYDYLIPIIEQRRQKPGTDAISIVANGQVNGRPITSDEAKRMCGLLLLGGLDTVVNFLSFSMEFLAKSPEHRQELIERPERIPAACEELLRRFSLVADGRILTSDYEFHGVQLKKGDQILLPQMLSGLDERENAAPMHVDFSRQKVSHTTFGHGSHLCLGQHLARREIIVTLKEWLTRIPDFSIAPGAQIQHKSGIVSGVQALPLVWDPATTKAV	–	–	20	–
Y96F: P450cam mutant (with C334A) (protein, UniProt P00183 2-415, looked up, variant Y96F C334A) Camphor 5-monooxygenase: TTETIQSNANLAPLPPHVPEHLVFDFDMYNPSNLSAGVQEAWAVLQESNVPDLVWTRCNGGHWIATRGQLIREAYEDYRHFSSECPFIPREAGEAFDFIPTSMDPPEQRQFRALANQVVGMPVVDKLENRIQELACSLIESLRPQGQCNFTEDYAEPFPIRIFMLLAGLPEEDIPHLKYLTDQMTRPDGSMTFAEAKEALYDYLIPIIEQRRQKPGTDAISIVANGQVNGRPITSDEAKRMCGLLLVGGLDTVVNFLSFSMEFLAKSPEHRQELIERPERIPAACEELLRRFSLVADGRILTSDYEFHGVQLKKGDQILLPQMLSGLDERENAAPMHVDFSRQKVSHTTFGHGSHLCLGQHLARREIIVTLKEWLTRIPDFSIAPGAQIQHKSGIVSGVQALPLVWDPATTKAV	–	22	8	–
C334A: P450cam with only the base mutation C334A (protein, UniProt P00183 2-415, looked up, variant C334A) Camphor 5-monooxygenase: TTETIQSNANLAPLPPHVPEHLVFDFDMYNPSNLSAGVQEAWAVLQESNVPDLVWTRCNGGHWIATRGQLIREAYEDYRHFSSECPFIPREAGEAYDFIPTSMDPPEQRQFRALANQVVGMPVVDKLENRIQELACSLIESLRPQGQCNFTEDYAEPFPIRIFMLLAGLPEEDIPHLKYLTDQMTRPDGSMTFAEAKEALYDYLIPIIEQRRQKPGTDAISIVANGQVNGRPITSDEAKRMCGLLLVGGLDTVVNFLSFSMEFLAKSPEHRQELIERPERIPAACEELLRRFSLVADGRILTSDYEFHGVQLKKGDQILLPQMLSGLDERENAAPMHVDFSRQKVSHTTFGHGSHLCLGQHLARREIIVTLKEWLTRIPDFSIAPGAQIQHKSGIVSGVQALPLVWDPATTKAV	–	–	0.5	Coupling Efficiency (%) [3]: 2%; 2,3-Dichlorophenol (relative amount of product formed) [3]: 95; 3,4-Dichlorophenol (relative amount of product formed) [3]: 5
Y96A: P450cam mutant (with C334A) (protein, UniProt P00183 2-415, looked up, variant Y96A C334A) Camphor 5-monooxygenase: TTETIQSNANLAPLPPHVPEHLVFDFDMYNPSNLSAGVQEAWAVLQESNVPDLVWTRCNGGHWIATRGQLIREAYEDYRHFSSECPFIPREAGEAADFIPTSMDPPEQRQFRALANQVVGMPVVDKLENRIQELACSLIESLRPQGQCNFTEDYAEPFPIRIFMLLAGLPEEDIPHLKYLTDQMTRPDGSMTFAEAKEALYDYLIPIIEQRRQKPGTDAISIVANGQVNGRPITSDEAKRMCGLLLVGGLDTVVNFLSFSMEFLAKSPEHRQELIERPERIPAACEELLRRFSLVADGRILTSDYEFHGVQLKKGDQILLPQMLSGLDERENAAPMHVDFSRQKVSHTTFGHGSHLCLGQHLARREIIVTLKEWLTRIPDFSIAPGAQIQHKSGIVSGVQALPLVWDPATTKAV	–	33	19	Coupling Efficiency (%) [2]: 14%; 2,3,6-Trichlorophenol (relative amount of product formed) [2]: 77; 3,4,6-Trichlorophenol (relative amount of product formed) [2]: 23; Coupling Efficiency (%) [3]: 6%; 2,3-Dichlorophenol (relative amount of product formed) [3]: 94; 3,4-Dichlorophenol (relative amount of product formed) [3]: 6
Y96L-V247A: P450cam mutant (with C334A) (protein, UniProt P00183 2-415, looked up, variant Y96L V247A C334A) Camphor 5-monooxygenase: TTETIQSNANLAPLPPHVPEHLVFDFDMYNPSNLSAGVQEAWAVLQESNVPDLVWTRCNGGHWIATRGQLIREAYEDYRHFSSECPFIPREAGEALDFIPTSMDPPEQRQFRALANQVVGMPVVDKLENRIQELACSLIESLRPQGQCNFTEDYAEPFPIRIFMLLAGLPEEDIPHLKYLTDQMTRPDGSMTFAEAKEALYDYLIPIIEQRRQKPGTDAISIVANGQVNGRPITSDEAKRMCGLLLAGGLDTVVNFLSFSMEFLAKSPEHRQELIERPERIPAACEELLRRFSLVADGRILTSDYEFHGVQLKKGDQILLPQMLSGLDERENAAPMHVDFSRQKVSHTTFGHGSHLCLGQHLARREIIVTLKEWLTRIPDFSIAPGAQIQHKSGIVSGVQALPLVWDPATTKAV	–	–	0.7	Coupling Efficiency (%) [3]: 2%; 2,3-Dichlorophenol (relative amount of product formed) [3]: 90; 3,4-Dichlorophenol (relative amount of product formed) [3]: 10
F87L-Y96F: P450cam mutant (with C334A) (protein, UniProt P00183 2-415, looked up, variant F87L Y96F C334A) Camphor 5-monooxygenase: TTETIQSNANLAPLPPHVPEHLVFDFDMYNPSNLSAGVQEAWAVLQESNVPDLVWTRCNGGHWIATRGQLIREAYEDYRHFSSECPLIPREAGEAFDFIPTSMDPPEQRQFRALANQVVGMPVVDKLENRIQELACSLIESLRPQGQCNFTEDYAEPFPIRIFMLLAGLPEEDIPHLKYLTDQMTRPDGSMTFAEAKEALYDYLIPIIEQRRQKPGTDAISIVANGQVNGRPITSDEAKRMCGLLLVGGLDTVVNFLSFSMEFLAKSPEHRQELIERPERIPAACEELLRRFSLVADGRILTSDYEFHGVQLKKGDQILLPQMLSGLDERENAAPMHVDFSRQKVSHTTFGHGSHLCLGQHLARREIIVTLKEWLTRIPDFSIAPGAQIQHKSGIVSGVQALPLVWDPATTKAV	–	8	5	–
F87A-Y96F-V247A: P450cam mutant (with C334A) (protein, UniProt P00183 2-415, looked up, variant F87A Y96F V247A C334A) Camphor 5-monooxygenase: TTETIQSNANLAPLPPHVPEHLVFDFDMYNPSNLSAGVQEAWAVLQESNVPDLVWTRCNGGHWIATRGQLIREAYEDYRHFSSECPAIPREAGEAFDFIPTSMDPPEQRQFRALANQVVGMPVVDKLENRIQELACSLIESLRPQGQCNFTEDYAEPFPIRIFMLLAGLPEEDIPHLKYLTDQMTRPDGSMTFAEAKEALYDYLIPIIEQRRQKPGTDAISIVANGQVNGRPITSDEAKRMCGLLLAGGLDTVVNFLSFSMEFLAKSPEHRQELIERPERIPAACEELLRRFSLVADGRILTSDYEFHGVQLKKGDQILLPQMLSGLDERENAAPMHVDFSRQKVSHTTFGHGSHLCLGQHLARREIIVTLKEWLTRIPDFSIAPGAQIQHKSGIVSGVQALPLVWDPATTKAV	–	7	–	–
Y96H: P450cam mutant (with C334A) (protein, UniProt P00183 2-415, looked up, variant Y96H C334A) Camphor 5-monooxygenase: TTETIQSNANLAPLPPHVPEHLVFDFDMYNPSNLSAGVQEAWAVLQESNVPDLVWTRCNGGHWIATRGQLIREAYEDYRHFSSECPFIPREAGEAHDFIPTSMDPPEQRQFRALANQVVGMPVVDKLENRIQELACSLIESLRPQGQCNFTEDYAEPFPIRIFMLLAGLPEEDIPHLKYLTDQMTRPDGSMTFAEAKEALYDYLIPIIEQRRQKPGTDAISIVANGQVNGRPITSDEAKRMCGLLLVGGLDTVVNFLSFSMEFLAKSPEHRQELIERPERIPAACEELLRRFSLVADGRILTSDYEFHGVQLKKGDQILLPQMLSGLDERENAAPMHVDFSRQKVSHTTFGHGSHLCLGQHLARREIIVTLKEWLTRIPDFSIAPGAQIQHKSGIVSGVQALPLVWDPATTKAV	–	1	–	Coupling Efficiency (%) [2]: 3%; 2,3,6-Trichlorophenol (relative amount of product formed) [2]: 54; 3,4,6-Trichlorophenol (relative amount of product formed) [2]: 46
